US20150276749A1 (KONICA MINOLTA, published 2015)

Assays:
[1] = target: T1, soluble-type human DSG3-mouse IgG2aFc fusion protein (human; mouse, UniProt P32926 50-616); test: sandwich ELISA, luminescence over blank; immobilized DF151, detection DF151; antigen 1 pg/mL
T1 construct: also called human desmoglein 3; desmoglein 3 standard; not shown: mouse IgG2a Fc, printed 'mouse IgG2aFc' and 'mouse IgG2 constant region'
T1 sequence: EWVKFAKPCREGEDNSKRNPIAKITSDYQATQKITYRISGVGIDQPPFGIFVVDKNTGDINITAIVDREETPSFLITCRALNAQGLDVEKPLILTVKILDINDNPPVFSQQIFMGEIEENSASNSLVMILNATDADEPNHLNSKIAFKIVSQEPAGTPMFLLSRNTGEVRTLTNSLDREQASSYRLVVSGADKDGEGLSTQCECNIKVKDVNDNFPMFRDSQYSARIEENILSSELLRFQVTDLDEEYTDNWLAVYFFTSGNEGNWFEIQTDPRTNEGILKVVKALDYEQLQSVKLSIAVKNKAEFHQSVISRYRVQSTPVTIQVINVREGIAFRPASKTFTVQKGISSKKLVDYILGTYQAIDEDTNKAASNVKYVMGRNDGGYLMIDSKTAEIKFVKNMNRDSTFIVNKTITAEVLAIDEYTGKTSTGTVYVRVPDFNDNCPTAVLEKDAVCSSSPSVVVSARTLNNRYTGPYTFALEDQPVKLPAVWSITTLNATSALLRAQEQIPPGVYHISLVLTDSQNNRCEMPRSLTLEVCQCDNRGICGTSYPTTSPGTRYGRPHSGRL
Procedure: (§1) Subsequently, the antigen solutions having the above-described concentrations were each added to the plate in an amount of 50 μL/well, and the plate was incubated at room temperature for 1 hour. Then, the antigen solution was removed, and the plate was washed with 0.05% Tween 20-PBS three times. Thereafter, the 1-μg/mL biotinylated antibody solution was added in an amount of 50 μL/well, and the plate was incubated at room temperature for 1 hour.
(§2) Then, after removing the streptavidin-HRP solution and washing the plate with 0.05% Tween 20-PBS three times, a substrate solution (SuperSignal ELISA Femto Maximum Sensitivity Substrate (registered trademark); Pierce Biotechnology, Inc.) was added in an amount of 100 μL/well. One minute thereafter, the luminescence intensity was measured using a luminometer, Fluoroskan Ascent FL (trade name, Thermo Electron Corporation).
(§3) The numerical values shown in Table 1 represent the minimum values of the antigen solution concentration having an S/N ratio of higher than 2 (hereinafter, referred to as “detection limit concentration”) and the unit of the numerical values is pg/mL. The S/N ratio was determined by dividing the luminescence intensity at the respective antigen solution concentrations ([…]) by the luminescence intensity of an antigen-free blank antigen solution (0 μg/mL).

[2] = target: T1, soluble-type human DSG3-mouse IgG2aFc …; test: sandwich ELISA, luminescence over blank; immobilized DF151, detection D219-3; antigen 1 pg/mL
Procedure: as §1, §2
(§4) The numerical values shown in Table 1 represent the minimum values of the antigen solution concentration having an S/N ratio of higher than 2 (hereinafter, referred to as “detection limit concentration”) and the unit of the numerical values is pg/mL. […]

[3] = target: T1, soluble-type human DSG3-mouse IgG2aFc …; test: sandwich ELISA, luminescence over blank; immobilized DF151, detection DF151; antigen 10 pg/mL
Procedure: as §1, §2, §4

[4] = target: T1, soluble-type human DSG3-mouse IgG2aFc …; test: sandwich ELISA, luminescence over blank; immobilized DF151, detection DF151; antigen 40 pg/mL
Procedure: as §1, §2, §3

[5] = target: T1, soluble-type human DSG3-mouse IgG2aFc …; test: sandwich ELISA, luminescence over blank; immobilized DF151, detection D219-3; antigen 200 pg/mL
Procedure: as §1, §2, §3

[6] = target: T1, soluble-type human DSG3-mouse IgG2aFc …; test: sandwich ELISA, luminescence over blank; immobilized DF151, detection DF151; antigen 1000 pg/mL
Procedure: as §1, §2, §3

[7] = target: T1, soluble-type human DSG3-mouse IgG2aFc …; test: sandwich ELISA, luminescence over blank; immobilized DF151, detection DF151; antigen 5000 pg/mL
Procedure: as §1, §2, §3

[8] = target: T1, soluble-type human DSG3-mouse IgG2aFc …; test: sandwich ELISA, luminescence over blank; immobilized DF151, detection MAB1720; antigen 10 pg/mL
Procedure: as §1, §2, §4

[9] = target: T1, soluble-type human DSG3-mouse IgG2aFc …; test: sandwich ELISA, luminescence over blank; immobilized DF151, detection MAB1720; antigen 40 pg/mL
Procedure: as §1, §2, §3

[10] = target: T1, soluble-type human DSG3-mouse IgG2aFc …; test: sandwich ELISA, luminescence over blank; immobilized DF151, detection D219-3; antigen 1000 pg/mL
Procedure: as §1, §2, §3

[11] = target: T1, soluble-type human DSG3-mouse IgG2aFc …; test: sandwich ELISA, luminescence over blank; immobilized DF151, detection D219-3; antigen 5000 pg/mL
Procedure: as §1, §2, §3

[12] = target: T1, soluble-type human DSG3-mouse IgG2aFc …; test: sandwich ELISA, luminescence over blank; immobilized DF151, detection MAB1720; antigen 200 pg/mL
Procedure: as §1, §2, §3

[13] = target: T1, soluble-type human DSG3-mouse IgG2aFc …; test: sandwich ELISA, luminescence over blank; immobilized DF151, detection MAB1720; antigen 1000 pg/mL
Procedure: as §1, §2, §3

[14] = target: T1, soluble-type human DSG3-mouse IgG2aFc …; test: sandwich ELISA, luminescence over blank; immobilized DF151, detection MAB1720; antigen 5000 pg/mL
Procedure: as §1, §2, §3

[15] = target: T1, soluble-type human DSG3-mouse IgG2aFc …; test: sandwich ELISA, luminescence over blank; immobilized DF151, detection MAB1720; antigen 25000 pg/mL
Procedure: as §1, §2, §3

S/N ratio [1]: 0.9 | S/N ratio [2]: 0.8 | S/N ratio [3]: 0.9 | S/N ratio [4]: 0.9 | S/N ratio [5]: 1 | S/N ratio [6]: 2.8 | S/N ratio [7]: 11.1 | S/N ratio [8]: 1.1 | S/N ratio [9]: 1.1 | S/N ratio [10]: 2.3 | S/N ratio [11]: 9.2 | S/N ratio [12]: 1.6 | S/N ratio [13]: 4.1 | S/N ratio [14]: 17.7 | S/N ratio [15]: 82.2
B1: DF151 (DF151[I] antibody) (antibody, mouse IgG2b, kappa, V domains shown)
VH: EVQLQQSGPELVKPGASVKISCKASGYSFTAYYMHWVKQSPEKCLEWIGQINPSTGGTTYNQKFKAKATLTVDKSSSTAYMQLKSLTSEDSAVYYCARWGDSWGQGTTLTVSS
VL: DIVLTQSPASLAVSLGQSVTISCRASESVEYYGTSLMQWYQQKPGQPPKLLIYGASDVESGVPARFSGSGSGTDFSLNIHPVEEDDIAMYFCQQSRKVPYTFGSGTKLEIKR
notes: Complete antibody; Biotinylated as detection antibody in ELISA; labeled with Alexa Fluor 647 as detection antibody in SPFS; also called DF151 antibody
